Test results taken from patent publication US20230093211A1.

How the values were obtained:
Test in all cases: SPR (Biacore T200), p75NTR-Fc captured on Protein A, neurotrophin injected
[1] = target: T1, NT-4
T1 sequence (P34130 81-210, species assumed, looked up): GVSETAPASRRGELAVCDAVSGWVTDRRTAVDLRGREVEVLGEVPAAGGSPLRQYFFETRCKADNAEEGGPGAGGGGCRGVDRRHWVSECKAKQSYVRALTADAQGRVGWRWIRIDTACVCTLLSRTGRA

[2] = target: T2, BDNF
T2 sequence (P23560 19-247, species assumed, looked up): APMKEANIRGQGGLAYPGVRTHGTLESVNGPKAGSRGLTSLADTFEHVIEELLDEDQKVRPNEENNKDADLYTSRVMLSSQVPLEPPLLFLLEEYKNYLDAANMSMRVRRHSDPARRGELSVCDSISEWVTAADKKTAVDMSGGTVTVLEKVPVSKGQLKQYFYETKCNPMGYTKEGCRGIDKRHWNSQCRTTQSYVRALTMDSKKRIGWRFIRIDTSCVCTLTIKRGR

[3] = target: NGF
Chain of NGF (P01138 122-241): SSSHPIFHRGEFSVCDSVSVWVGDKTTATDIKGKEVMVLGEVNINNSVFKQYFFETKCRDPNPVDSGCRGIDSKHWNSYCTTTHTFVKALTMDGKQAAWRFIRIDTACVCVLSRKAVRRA

[4] = target: NT-3

Chain of p75NTR-Fc (Fc fusion) (chain): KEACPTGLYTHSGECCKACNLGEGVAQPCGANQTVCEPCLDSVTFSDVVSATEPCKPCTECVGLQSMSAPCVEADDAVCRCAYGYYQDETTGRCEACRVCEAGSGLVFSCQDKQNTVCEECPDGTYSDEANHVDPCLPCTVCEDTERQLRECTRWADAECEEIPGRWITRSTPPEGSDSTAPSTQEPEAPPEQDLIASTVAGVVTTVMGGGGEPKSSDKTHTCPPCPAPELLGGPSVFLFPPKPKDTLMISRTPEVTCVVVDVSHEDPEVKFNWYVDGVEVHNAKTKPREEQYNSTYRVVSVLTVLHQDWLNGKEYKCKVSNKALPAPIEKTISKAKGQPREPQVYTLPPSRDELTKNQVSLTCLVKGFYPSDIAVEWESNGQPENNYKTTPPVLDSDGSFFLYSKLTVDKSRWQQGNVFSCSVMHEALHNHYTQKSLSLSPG

p75NTR-Fc (Fc fusion)
Kd [1]: 0.181 nM
Kd [2]: 0.0418 nM
Kd [3]: 0.554 nM
Kd [4]: 0.0142 nM
